Data reported in patent US6200577A, “Anti-herpesviral agents and assays therefor” (priority 1996, dated 2001).
“Also recorded” adds a separate entry of the source.

Key:
[1] = Solubility of synthetic peptides in buffer; type: physicochemical; conditions: peptides dissolved in 20 mM Tris-HCl, pH 8.0, 250 mM NaCl; unpurified preparations
Method: Synthesis and Purification of Oligopeptides. Peptides were synthesised by continuous flow Fmoc chemistry (Atherton and Sheppard, 1989; McLean et al., 1991) and, where stated in the text, were purified by preparative reverse-phase HPLC (Owsianka et al., 1993). The Mr values of peptides were determined by fast atom bombardment mass spectrometry (M-Scan) and corresponded to the predicted values. Peptides were dissolved in 20 mM Tris-HCl, pH 8.0, 250 mM NaCl and centrifuged at 11,500 g for 1 minute prior to use. […] Precipitates were removed by centrifugation before use.

VP16 = target: T1, VP16 (Human herpesvirus 1, UniProt P06492); test: ELISA of direct binding of VP16 to plate-coated peptides; design: species or system HSV-1; conditions: wells coated with peptide up to 500 μg/ml; VP16 1.6 μg/ml; FIG. 10
T1 construct: Plasmid pETVP16 was used to express full-length VP16 under the control of the T7 RNA polymerase promoter; made in house; host or cells: E. coli BL21(DE3)
T1 sequence (P06492 whole entry): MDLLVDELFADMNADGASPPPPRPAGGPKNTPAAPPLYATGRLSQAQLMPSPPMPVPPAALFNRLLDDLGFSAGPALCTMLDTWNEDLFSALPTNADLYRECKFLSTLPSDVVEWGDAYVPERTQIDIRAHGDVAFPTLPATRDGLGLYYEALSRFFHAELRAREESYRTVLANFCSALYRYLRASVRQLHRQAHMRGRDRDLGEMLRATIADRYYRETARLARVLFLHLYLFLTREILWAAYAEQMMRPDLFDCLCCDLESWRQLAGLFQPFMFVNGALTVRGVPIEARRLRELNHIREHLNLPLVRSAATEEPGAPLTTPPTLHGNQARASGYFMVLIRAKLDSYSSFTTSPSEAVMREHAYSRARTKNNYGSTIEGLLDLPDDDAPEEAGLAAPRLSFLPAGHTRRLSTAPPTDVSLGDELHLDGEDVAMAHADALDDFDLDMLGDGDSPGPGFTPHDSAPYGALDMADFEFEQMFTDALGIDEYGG
Method: FIG. 10 Binding of VP16 to peptides. Microtitre plates were coated with 5-fold dilutions of peptides ranging from 500 μg/ml to 1 μg/ml and blocked with PBS/10% NCS. VP16 was then added to a final concentration of 1.6 μg/ml and detected with LP1. The legend for the peptides added is shown to the right of the graph.
(§1) Dilutions of proteins in PBS were coated overnight onto flat bottomed micro-titre plates (Dynatech) at 37° C. and then blocked with either 2% BSA or 10% new-born calf serum (NCS) in PBS for 1 hour at 37° C. Specific binding of a second protein to the plate-bound protein was performed for 1.5-2 hours at ambient temperature. a Excess secondary protein was removed by washing four times with PBS, 0.3% Tween 20. Bound protein was detected by incubation for 1.5-2 hours with LP1 antibody in PBS, 1% gelatin or PBS, 2% NCS. The bound antibody was detected by incubation for 1 hour at ambient temperature with anti-mouse antibody conjugated to HRP (1:500) and visualised with Smg/ml enzyme substrate 2,2'-azino-bis(3-ethylbenzthiazoline-6-sulphonic acid) (ABTS; Sigma) in citrate-phosphate buffer containing 6 μl hydrogen peroxide in a total volume of 20 ml. Optical densities were measured on a Titertek Multiscan PLUS instrument.
To examine whether VP16 could bind directly to the peptides, wells were coated with each peptide (A-J) at a range of concentrations from […] to 500 μg/ml and the plate was then blocked with […]. […] Nonetheless, the data for peptides D and E implicate direct binding of these peptides to VP16 as the mechanism for inhibiting its interaction with VP22. Peptide H also was active in experiments which prevented gB binding to VP22trunc [Section 4 (iii)] and thus also forms an aspect of the invention.

[2] = target: T2, VP16/VP22trunc interaction (Human herpesvirus 1, UniProt P06492); test: ELISA of peptide inhibition of VP16 binding to VP22trunc; design: species or system HSV-1; conditions: D and E pure preparations, effect at 100 and 500 μg/ml; VP16 1.6 μg/ml; 160 ng VP22trunc; FIG. 9
T2 construct: Plasmid pETVP16 was used to express full-length VP16 under the control of the T7 RNA polymerase promoter; made in house; host or cells: E. coli BL21(DE3)
T2 sequence (P06492 whole entry): as above
Method: FIG. 9 Inhibitory effect of peptides D and E on the VP22trunc-VP16 interaction in ELISAs. Microtitre plates were coated with 160 ng of VP22trunc and blocked with PBS/10% NCS. Before addition to the wells, five-fold dilutions of the peptides, ranging from 500 μg/ml to 1 g/ml, were incubated with VP16 (1.6 μg/ml). Bound VP16 was detected with LP1 at a dilution of 1:1000. The legend for the peptides added is shown to the right of the graph. Values are shown relative to those obtained in the absence of the peptide.
as §1
To adopt a more quantitative approach, an ELISA for VP16 binding to VP22trunc was developed. Optimal conditions were determined by coating wells with various quantities of VP22trunc followed by blocking with 2% BSA. Plates were then incubated with dilutions of VP16 and the bound VP16 detected with LP1.
The studies presented above have provided strong evidence in support of peptide inhibition of the interaction between VP16 and VP22. However, quantitative analysis of the ability of peptides to block any interaction is difficult to perform by the above methods. Therefore, using the ELISA system described in Results Section 2(iii) with the exception that PBS/10% NCS was utilised as a blocking agent, the inhibitory effects of peptides D and E were examined. This modification arose due to nonspecific binding of the peptides to wells when BSA was used for blocking (data not shown).

[3] = target: T2, VP16/VP22trunc interaction; test: Far Western analysis of peptides blocking VP16 binding to immobilised VP22trunc; design: species or system HSV-1
Method: FIG. 7 Far Western analysis of the ability of peptides to block the interaction between VP16 and immobilised VP22trunc. Purified VP22trunc was added to partially purified extract of VP16 and the sample run on a 12% polyacrylamide gel. Proteins were then transferred to nitrocellulose membrane and the blot was cut into strips, with each strip containing approximately 1 g of VP22trunc. In (A), strips were pre-incubated with 1 mg of each of the following peptides: lane 2, no peptide, lane 3, peptide C; lane 4, peptide D; lane 5, peptide E; lane 6, peptide F; lane 7, peptides D and E; lane 8, peptides C and F. In (B) strips were pre-incubated with 1 mg of each of the following peptides: lane 2, no peptide, lane 3, peptide C; lane 4, purified peptide D; lane 5, purified peptide E; lane 6, peptide F. 24 g of pure VP16 was then added to strips 2 to 8 in (A) and strips 2 to 6 in (B), followed by incubation with LP1 antibody (1:1000 dilution). As a control, portions of the blot were incubated with LP1 or the 9220 antibody at a dilution of 1:1000 (lane 1 for LP1 in A and B; lane 9 in A and lane 7 in B for 9220). The apparent molecular weights of VP16 (65 KDa) and the dimer (32 KDa) and monomer (16 KDa) forms of VP22trunc are shown.
Following electrophoresis, proteins were electrotransferred to either Hybond or ProBlott (Applied Biosystems) membrane and the membrane was incubated in renaturation buffer (50 mM Tris-HCl, pH 8.0, 150 mM NaCl, 10% glycerol, 1 mM DTT) at 4° C. for 5-6 hours.
For membranes probed with either VP16 or VP22trunc, blocking was performed overnight as described for Western blot analysis. Probing with epitope-tagged VP22 or VP16 was performed in 20 mM Tris-HCl, pH 8.0, 250 mM NaCl for 1.5 hours at ambient temperature. Excess probe was removed by washing 4 times (10 minutes per wash) in 20 mM Tris-HCl, pH8.0, 250 mM NaCl, followed by incubation with the appropriate antibody at a dilution of 1:1000 in TTBS/1% gelatin for 1.5-2 hours. Bound antibody was detected as described for Western blot analysis.
Based on the studies with soluble VP16 and VP22trunc presented above, only a restricted number of peptides were examined by Far Western analysis to identify those that may prevent binding of VP16. Thus, VP22trunc was added to a crude extract of bacterially expressed VP16 and the proteins were electrophoresed on a polyacrylamide gel followed by transfer to a membrane. […] Before the addition of VP16 the blot strips in lanes 3 to 8 were incubated with crude preparations of peptides C, D, E, or E' as well as mixtures of either 0 and E or C and F. When the blot strips were incubated with peptides C and F either singly or in combination, VP16 bindincg to VP22trunc was not prevented (FIG. 7A, lanes 3, 6 and 8).

Sequence	Solubility [1]	Direct binding of VP16 to plate-coated peptide (ELISA) (VP16)	Inhibition of VP16 binding to VP22trunc in ELISA [2]	Blocking of VP16 binding to immobilised VP22trunc (Far Western), crude peptides ([3]; strips pre-incubated with 1 mg of crude peptide, FIG. 7A)	Blocking of VP16 binding to immobilised VP22trunc (Far Western), repeat with purified peptides D and E ([3]; strips pre-incubated with 1 mg peptide, D and E purified, FIG. 7B)
NLLQRANELVNPDVVQDVPD [Peptide I]	soluble	binding did not occur			
GSHMARTAPTRSKTPAQGLA [Peptide A]	soluble	binding did not occur			
KTPAQGLARKLHFSTAPPNP [Peptide B]	soluble	binding did not occur	neither peptides B, C nor F had any effect		
RMAAVQLWDMSRPRTDEDLN [Peptide F]	soluble	binding did not occur	neither peptides B, C nor F had any effect	not prevented	had no effect
PRTDEDLNELLGITTIRVTV [Peptide G]	partly; also recorded: partially insoluble	binding did not occur			
DVVQDVPDPERKTPRVTGG [Peptide J]	soluble	binding did not occur			
